# Assay results published in the nanobody polyreactivity screen of Harvey et al. (2022).
# Assay: yeast display, Sf9 membrane polyspecificity reagent, FACS + sequencing; frameworks hold sequencing errors
# Outline: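 A synthetic nanobody library was expressed on Saccharomyces cerevisiae BJ5465 by galactose induction for 36–48 hours. The library was stained for 1 hour at 4 °C with 10% biotinylated, detergent-solubilized Sf9 membrane reagent and enriched with streptavidin microbeads before FACS. Low and high (top ~1%) gates were set on anti-HA fluorescence for expression and streptavidin fluorescence for reagent binding, and each polyreactivity label reflects the gate of origin.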
row,Sequence,polyreactivity (PSR sort gate)
1,QVQLVESGGGLVQAGGSLRLSCAASGLIFRYYAMGWYRQAPGKESELVAAITSGGGTYYADSVKGRFTISRDNAKNTVYLQMNSLKPEDTAFYYCAVGSYGHPKHRRNLDYWGQGTQVTVSS,low polyreactivity
2,QVQLVESGGGLVQAGGSLRLSGAASGRTFVSYTMGWYRQAPGKERQLVAAISDDGDSTYYADSVKGRFTISRDYAKNTVYLQMNSLKPEDTAVYYCAAGEYQYFWFPFDYWGQGTQVTVSS,low polyreactivity
3,QVQLVESGGGLVQAGGSLRLSCAASGFIFGIYAMGWYRQAPGKEREFVAAMTGSAGSTYYADSVKGRFTISRDNAKNTVYLQMNSLKPEDTAVYYCAAVLRTHRYGGYNYWGQGTQVTVSS,low polyreactivity
4,QVQLVESGGGLVQAGGSLRLSCAASGGIYYYAMGWDRQAPGKERELVAAISSGGGNTNYADSVKGRFTISRDNAKNTVYLQMNSLKPVDTAVYYCAAEHPVTYRTSKFDYWGQGTQVTVSS,low polyreactivity
5,QVQLVESGGGLLQAGGSLRLSCAASGRNFTHNAMGWYRQAPRKERELVAAITSGGRTTYADSVKGRFTISRDNAKNTVYLQMNSLKPEDSAVYYCNADTGLGSLDFDKRDYWGQGTQVTVSS,low polyreactivity
6,QVQLVESGGGLVQEGGSLRLSCAASGGIFGWYAMGWYRQAPGKERELVATITWRGGRTYYADSVKGRFTISRDNEKNTVYLQMNSLKPEDTAVYYCNAEWLWYDAGYRYTIRDSWGQGTQVTVSS,low polyreactivity
7,QVQLVESGGGLVHAGGSHRLSCAASGRTFPGYPMGWYIPAPGTERELVAGISYRGGSTYFADSVKGRFTISRDNAKNTVYLQMNSLKPEDTAVYFCARDYSRHKGDYWGQGTQGTVSS,low polyreactivity
8,QVQLVESGGGLVQAGGSLRLSCAASGRIFSLNTMGWYRQAPGKERELVATITKRGGNTYYADSVKGRFTISRDNAKNTVYLQMNSLKPEDTAVYYCAVPRSITYRYGYWGQGTQVTVSS,high polyreactivity
9,QVQLVESGGGLVQAGGSRRLSCAASGFIFTTYTRGWYRQATGTERELVAAIRSDGVRTYYADSVKGRFTISRDNAKNTVYLQMNSLKPEDTAVYYCNRVCAVRIGAGDYWGQGTQVTVSS,high polyreactivity
10,QVQLVESGGGLVQAGGSLGLSCAAYGSTFRYYAMGWYRQAPGKERELVAAISSAGNTYYADSVKGRFTISRDNAKNTVYLQMNSLKPEDTAVYYCAAKYSYYTYAGDGGLFSCSYGYWGQGTQVTVSS,low polyreactivity
11,QVQLEESGGGLLKEGGSLRLSCAASGFTFDGYAMGWYRQAPGKERELVAVITSGGSTKYADSVKGRFTISRDNAKNTVYLQMNSLKPEVTAVYNCNVVGGRYLYSAYDYWGHGTQVTVSS,low polyreactivity
12,QVQLVESGGGLVQAGGSLRLTCAASGSTFSKNAMGWYRQATGNERELVASISSSVGSTYYSDSVKGRFTISRDNAKNTVYLQMNSLKPEDTAVYYCATRRGRGYYYWGQGTQVTVSS,high polyreactivity
13,QVQLVESGGGLVQAGGSLRLSCAASGSTFASYAMGWYRQAPGKEREFVAAISRSGGSTYYADSVKGRFTISRDNAKNTVYLQMTSLKPEDTAVYYCAARSPSADEYYYWGQGTQVTVSS,low polyreactivity
14,QVHLVESGGGLVQAGGSLRLSCPASGRTLDSNAMGWYRQAPGKERELVAAISSAGSTNYADSVKGRFTISRDNAKNTVYLQMNSLKPEDTAVYYCAADLIGSHDYWGQGTQVTVSS,low polyreactivity
15,QVQLVESGGGLDQAGGSLRLSCAASGSIFKLNARGWYREAPGKERELVAAITSVGRTYYADSVKGRFTISRDNAKKTVYLQMNSLKPEDTAVYYCGAARYGVYWYGYWGQGTQVTVSS,high polyreactivity
16,QVHLVESGGGLVQAGGSLRLSCAASGSIFIVYTMGWYRQAPGKERELVAAISSGGITDYADSVKGRFTISRDNAKNTVYLQMNSLKPEDTAVYYWGQGTQVTVSS,low polyreactivity
17,QVQLVESVGGLVQAGGSLRLSCPASGFTFKYYAMGWYRQAPGKEREFVAAISRSGGSTTYADSVKGRFTISRDNAKNTVYLQMNSLKPEDTAVYYCAVAYYTAYTPRDGEYWGQGTQVTVSS,high polyreactivity
18,QVQLVESGGGLVQAGGSLRLSSAPSGRTFGVYAMGWYRQAPGKERELVAAISATGGSTYYADSVKGRFTISRDNAKNTVYLQMNSLKPEDTAVYYCARGGTTLYWGQGTQVTVSS,high polyreactivity
19,QVQLVESGGGLVQAGGSLRLSCAASGFTFRNNAMGWYRQAPGKERELVAAISKRGSSTYYADSVKGRFTISRDNAKNTVYLQMNSLKPEDTAVYYCAASWLGASGIRYDYWGQGTQVTVSS,high polyreactivity
20,QVQLVESGAGLVQAGGSLRLICAASGFIFADYAMGWYRQAPGKERELVAAITSSGSRTYYADSVKGRFTISRDNAKNTVYLQMNSLKPEDTAVYYCAVRGVYYYHFAFDYWGQGTQVTVSS,high polyreactivity
21,QEQLVESGGGLVQAGGSLRLSCAASGSTFYANAMGWYRQAPGQERELVAAISWDGGNTYYADSVKGRFTISRDNAKNNVYLQMNSLKPEDTAVYYCARDYYGTVYYYGYDYWGQGTQVTVSS,low polyreactivity

row,Sequence,polyreactivity (PSR sort gate)
1,QVQLVESGGGLVQAGGSLRLSCAASGINFDGNVMGWYRPAPRKEREFFASISISGGSTSYADSVKGRFTISRDNAKNTVYLQMNSLKPEDTAVYYCNTDVCYGRVWRWRFHGDYWGQGTQVTVSS,low polyreactivity
2,QVQLVDSGGGLVQAGGSLRLSCADSGRTFYTNAMGWYRQAPGKERELVAAIDISGSTYYADSVKGRFTISRDNAKNTVYLQMNSLKPEDTAVYYCNVDTVCLGGEKGGYYWGQGSQVTVSS,low polyreactivity
3,QVQLVESGGGLVQAGGSLRLSCADSGYTFGTYAMGWYIKAPGKERELVAAISNSGGSTYYADSVKGRFTISRDNAKNTVYLQMNSLKPEDTAVYYFNTDGLVRNGPFYSWGLGTQVTVSS,low polyreactivity
4,QVQLVESGGGLVQAGGSLRLSCAASGLIFGYYAMGWYRQAPGKERELVAAITSSGASTYYADSVKGRFTISRDNAKNSVYLQMNSLKPEDTAVYYCNKYRYRSLGYDYWGQGTQVTVSS,high polyreactivity
5,QVQLVESGGGLVQAGGSLRLSCAASGSIFPYYAMGWYRQAPGKERELVAAITLSGGRTYYADSVKGRFTISRDNAKNTVYLQMNSLKPEDTAVYYCNVYRSKKRYGWGEDDYWGQCTQVTVSS,high polyreactivity
6,QVQLVESGGGLVQAGGSLRLSCAASGSTFYGNAMGWYRQAPGKERELVAAISRGGGSTYYADSVKGRFTISRDNAKNTVYLQMNSLKPEDTAVYYCAATRYLHPWYYPYYYWGQGTQVTVSS,low polyreactivity
7,QVQLVESGGGLVQAGGSLSLSCAASGLIFLQYGMGWYREAPGKERELVAAITTRGGRTYYADSVKRRFTISRDNAKNTVYLQMNSLKPEDTAVYYCAADSEQDNLRYYRWVWYYYWGQGTQVTVSS,low polyreactivity
8,QVQLVESGGGLVQAGGSLRLSCAASGSIFGRNAMGLYRQAPGKERELVAAITDGGNTNYADSVKGRFTISRDNAKNTVYLQMNSLNPEDTAVYYCAARIPGTYGGRYGYDYWGQGTQVTVSS,low polyreactivity
9,QVQLVESGGGLVQAGGSLRLSCAASGLIFNYYAMGWYRQAPGKEREFVAAISGRGGNTYYADSVKVRFTISRDNAKTTVYLQINSLKPEDTAVYYCAARRYYSNREYDYWGQGTQVTVSS,high polyreactivity
10,QVQLVESGGGLVQAGGSLRLSCAASGFTLGSKVMGWYRQAHGKERELVAGISQSGGRTFYADSVKGRFTISRDNAKNTVYLQMNSLKPEDTAVYYCAAGYYPYWGQGTLVTVSS,low polyreactivity
11,QVQLVESGGGLVQAGRTLRLSCAASGFTFGRYAMGWYRQAPGKERELVAAISRNGGRTYYADSVKGRFTISRDNAMNTVYFQMNSLKPEDTAVYNCAADGYERKTAQYDYWGQGTQVTVSS,high polyreactivity
12,QVQLVESAGGLVQAGGTLRLSCAASGSIFRTHTMGWYRQAPGKERELVAAITAIGDSTYYADAVKGRFTISRDNAKNTVNRQLHSLKPEDTAVYYCAAEKVSWGYHFYSSYDYWGQGTQVTVSS,low polyreactivity
13,QVQHVESGGGLVQAGGSLRLSCAASGSTFYRYTMGWYRQPPGKEREFVATITGRGGSTYADSVKGRFTISRDNAKNTVYLQMNSLKPEDTAVYYCAKRQTYREYDYWGQGTQVTVSS,low polyreactivity
14,QVQLVESGAGLVQEGGSLRLSCAASGSIFQAYAMGWYRKAPGKERELVANISSGGSTNYADSVKGRFTISRDNAKNTVYLQMNSLKPEDTAVYYCAASRWIFVLTYEYDYWNRRDYWGQGTQVTVSS,low polyreactivity
15,QVQLVESGGGLVQAGGSLRLSCAASGRIFSYYAMGWYRQAPGKERELVAAINSDGSTDYADSVKGRFTISRDNAKNTVYLQMNSLKPEDTAVYYCAKVWSLGPTGFRAYVRVWYYYWGVGTQVTVSS,low polyreactivity
16,QVQLVESGGGLVQAGGSLRLSCAASGLTFGAYAMGWYRQAPGKERELVAAISDSGGTTYYADSVKGRFTISRDNAKNTVYLQMNSLKPEDTAVYYCAAVKSDVRYRYDYYWGQGTQVTVSS,low polyreactivity
17,QVQLVESGGGLVQAGGSLRLSCAASGSTFLSYAMGWYRQAPGHERELVAAISIAGSTYYADSVKGRFTISRANAKNTVYLQMHSLKPEDTAVDYCRRYYRIYDYWGQGTQVTVSS,low polyreactivity
18,QVQLLESGGGLVQAGGSLRLSCAASGGTFPQYAMGWYRKAPGKERELVAVNTRSGRTNYADTVKARFTISRDNAKNTVYVQMNSLKPEDTAVYYCNADEVDDEVSPDLTEMDYWGQGTQVTVSS,low polyreactivity
19,QVQLVESGGCLVQAGGSLRLSCAASGSTLRYYAMGWYRQAPGKERELDARIRSNGGSTYYADSVKGRFTISRDNANNTVYLQMNSLKPEETAVYYCAARTYRGQYYTGFGFGYWGQGSQVTVSS,high polyreactivity
20,QVQLVESGGGLVQAGGSLRLSCAASGRNFGVYAMGWYRQAPGKERELVARIRGSGASTYYADSVKGRFTISRDNAKNTVYLQMNSLKPEDTAVYYCAAVTVAGYDYWGQGTQVTVSS,high polyreactivity
